Assay results from the supplement of paper PMC9233669.
Variants at the floor of the assay were thinned out.

Legend:
biotinyl-Phe-oxazolone = assay: self-aminoacylation, catalytic enhancement (BFO) (fold over background); higher = more active; k-Seq, kA / k0A0; sequences stand for … in GGGAAUGGAUCCACAUCUACGAAUUC…UUCACUGCAGACUUGACGAAGCUG
How it was run: (§1)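 The uncatalyzed rate is the low-activity peak of a bimodal Gaussian fit, and catalytic enhancement is median kA divided by it. The kA values came from pseudo-first-order fits, with 1000 bootstraps, of per-sequence fraction reacted measured by streptavidin capture, triplicate qPCR and Illumina sequencing. Mutagenized RNA pools with a 21-nt variable region (0.43 μM) were reacted with each biotinyl-aminoacyl-oxazolone at 2–1250 μM in 50 μL HEPES/NaCl/KCl/MgCl2/CaCl2 buffer with 5% acetonitrile, pH 6.9–7.0, for 90 minutes at room temperature.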

biotinyl-Trp-oxazolone = assay: self-aminoacylation, catalytic enhancement (BWO) (fold over background); higher = more active; k-Seq, kA / k0A0; sequences stand for … in GGGAAUGGAUCCACAUCUACGAAUUC…UUCACUGCAGACUUGACGAAGCUG
How it was run: as §1

biotinyl-Ile-oxazolone = assay: self-aminoacylation, catalytic enhancement (BIO) (fold over background); higher = more active; k-Seq, kA / k0A0; sequences stand for … in GGGAAUGGAUCCACAUCUACGAAUUC…UUCACUGCAGACUUGACGAAGCUG
How it was run: as §1

biotinyl-Val-oxazolone = assay: self-aminoacylation, catalytic enhancement (BVO) (fold over background); higher = more active; k-Seq, kA / k0A0; sequences stand for … in GGGAAUGGAUCCACAUCUACGAAUUC…UUCACUGCAGACUUGACGAAGCUG
How it was run: as §1

biotinyl-Leu-oxazolone = assay: self-aminoacylation, catalytic enhancement (BLO) (fold over background); higher = more active; k-Seq, kA / k0A0; sequences stand for … in GGGAAUGGAUCCACAUCUACGAAUUC…UUCACUGCAGACUUGACGAAGCUG
How it was run: as §1

biotinyl-Met-oxazolone = assay: self-aminoacylation, catalytic enhancement (BMO) (fold over background); higher = more active; k-Seq, kA / k0A0; sequences stand for … in GGGAAUGGAUCCACAUCUACGAAUUC…UUCACUGCAGACUUGACGAAGCUG
How it was run: as §1

| Sequence | self-aminoacylation (biotinyl-Phe-oxazolone) | self-aminoacylation (biotinyl-Trp-oxazolone) | self-aminoacylation (biotinyl-Ile-oxazolone) | self-aminoacylation (biotinyl-Val-oxazolone) | self-aminoacylation (biotinyl-Leu-oxazolone) | self-aminoacylation (biotinyl-Met-oxazolone) |
| --- | --- | --- | --- | --- | --- | --- |
| ACGUUUGCUAAUAGUUGCAAG [Fam3.1 aminoacylation ribozyme variant] | 2.12 | 1.15 | 1.45 | 1.17 | 1.33 | 1.26 |
| AUCACCCUGGUCAUCCAGUGA [Fam2.1 aminoacylation ribozyme variant] | 41.2 | 6.77 | 4.34 | 3.61 | 7.91 | 6.56 |
| CCACGCUUCAUGCAAUCGGUC [Fam1B.1 aminoacylation ribozyme variant] | 0.756 | 0.507 | 0.812 | 1.06 | 0.749 | 0.782 |
| AUUACCCAGGUCACCGAGUGA [Fam2.1 aminoacylation ribozyme variant] | 66.2 | 10.3 | 4.17 | 4.49 | 10.2 | 8.63 |
| CCACCCUUCAAGAAAUCGGUC [Fam1B.1 aminoacylation ribozyme variant] | 5.63 | 6.09 | 1.24 | 1.19 | 1.26 | 1.16 |
| AAGUUUGCUAAUAGUGGCAUG [Fam3.1 aminoacylation ribozyme variant] | 1.1 | 0.862 | 0.823 | 0.772 | 0.754 | 0.821 |
| CUACUACUAACAAUCGGUCUG [Fam1A.1 aminoacylation ribozyme variant] | 1 | 0.466 | 0.764 | 0.673 | 0.495 | 0.729 |
| ACCACCCUGGUCAUCGAGUGA [Fam2.1 aminoacylation ribozyme variant] | 27.9 | 9.59 | 4.75 | 5.17 | 9.22 | 10.1 |
| AUUCAGCUAGUUCAUCGGGUG [Fam2.2 aminoacylation ribozyme variant] | 52.3 | 7.26 | 5.34 | 4.95 | 9.16 | 7.01 |
| AUUACCCUGGUCAUGGAGGGA [Fam2.1 aminoacylation ribozyme variant] | 2.1 | 2.23 | 1.82 | 1.76 | 1.86 | 1.83 |
| UCACACUUUAAGCAAUCGGUC [Fam1B.1 aminoacylation ribozyme variant] | 0.841 | 0.764 | 0.869 | 0.857 | 0.791 | 0.694 |
| AUUACCUUGGACAUCGAGUGA [Fam2.1 aminoacylation ribozyme variant] | 26.3 | 7.94 | 3.16 | 2.9 | 6.08 | 5.7 |
| AUUCACCUAGGCUAUCGGGUG [Fam2.2 aminoacylation ribozyme variant] | 21.8 | 3.79 | 2.43 | 3.06 | 4.84 | 3.76 |
| AAGUUGGCUAAUAGCCGCAAG [Fam3.1 aminoacylation ribozyme variant] | 2.16 | 2.85 | 1.89 | 1.91 | 1.95 | 2.22 |
| AUUCACCUAGCUCAUCGGUUG [Fam2.2 aminoacylation ribozyme variant] | 0.258 | 0.533 | 0.978 | 0.845 | 0.861 | 0.921 |
| AUUCACCUAGGUCAACGGGUA [Fam2.2 aminoacylation ribozyme variant] | 0.801 | 1.83 | 1.41 | 1.08 | 1.29 | 1.12 |
| CCACACUUCAACCAAUCGGCC [Fam1B.1 aminoacylation ribozyme variant] | 4.99 | 5.45 | 2.12 | 2 | 1.72 | 1.55 |
| CCCCACUUCAAGCAAUGGGUC [Fam1B.1 aminoacylation ribozyme variant] | 1.88 | 1.96 | 1.32 | 1.67 | 0.835 | 0.959 |
| CCACUACAAACAAUCGGUCUG [Fam1A.1 aminoacylation ribozyme variant] | 1.38 | 0.734 | 1.02 | 1.12 | 1.14 | 0.764 |
| AUUCCCCUGGACAUCGAGUGA [Fam2.1 aminoacylation ribozyme variant] | 35.4 | 7.13 | 3.41 | 3.45 | 6.77 | 6 |
| AUUCACCUAGGACAUCCGGUG [Fam2.2 aminoacylation ribozyme variant] | 31 | 4.47 | 7.62 | 6.22 | 6 | 5.98 |
| AAGUUUGCUAAUCGUCGCAUG [Fam3.1 aminoacylation ribozyme variant] | 0.667 | 0.804 | 1.03 | 0.923 | 0.957 | 0.922 |
| AUUCAUCUAGGUCAUCGUGUG [Fam2.2 aminoacylation ribozyme variant] | 4.8 | 0.882 | 1.05 | 0.915 | 1.23 | 1.16 |
| AUUCCCCUGGUCAUCGAGUGA [Fam2.1 aminoacylation ribozyme variant] | 45.7 | 8.4 | 4 | 4.37 | 6.99 | 6.93 |
| AUUACCCUAGUCACCGAGUGA [Fam2.1 aminoacylation ribozyme variant] | 23.1 | 7.33 | 2.89 | 3.27 | 6.48 | 6.48 |
